Measurements reported in patent US20230242598A1, “FUNCTIONAL POLYPEPTIDES AND USE THEREOF” (priority 2020, published 2023).
Where two headings read alike, the source gives them in different places.

What was measured:
[1] = tested on: HeLa; conditions: cited from earlier work
[2] = tested on: L1210; conditions: Kobayashi et al. 1994; cited from earlier work
[3] = tested on: smooth muscle cell; conditions: Frew et al. 2008; cited from earlier work
[4] = tested on: mice; conditions: i.p.; cited from earlier work
[5] = tested on: HeLa cells; assay: Cytotoxicity of SOR, Cell Counting Kit-8 (WST-8); type: cell-based, human; conditions: ratio of cytotoxicity, HeLa versus L1210
Experimental: The cytotoxicity of SOR was evaluated using L1210 (RBRC-RCB2844, Riken) and HeLa (RBRC-RCB0007, Riken) cells. RPMI1640 medium supplemented with 10% FBS was used for the L1210 cells, and EMEM supplemented with 10% FBS was used for the HeLa cells. The cells were precultured for 3 days (L1210) or 7 days (HeLa) using a CO2 incubator (37° C., 5% CO2). […]. SOR dissolved in a medium (200 μg/mL) was filtered ([…]), and serially diluted 2-fold, and the diluted products were added to wells in an amount of 10 μL/well such that the final concentration of SOR was 50 to 0.024 μg/mL. The cells of each line were incubated for 48 hours, and the growth of the cells was quantified using Cell Counting Kit-8 (Dojindo Laboratories Co., Ltd.) based on the WST-8 method according to manufacturer's protocol. Absorption at 450 nm was measured using a microplate reader, and a mean of triplicate data was plotted to prepare a concentration-response curve, followed by analysis using Prism software. […].

[6] = tested on: Aplysia kurodai eggs; assay: Toxicity in Aplysia kurodai egg (influence on cleavage and development); type: in vivo
Experimental: Eggs were taken out of a newly deposited egg mass of Aplysia kurodai, and influence on cleavage was examined using the collected eggs. Eggs were taken out of the egg mass in artificial seawater (ASW) and gently centrifuged by hand centrifuge apparatus. The precipitated eggs were rinsed with ASW twice. Filtered natural seawater was added to a 24-well plate (2 mL/well), to which SOR (10 μL/well) and subsequently the liquid containing the eggs (20 μL/well) were added. Then, egg development was observed under microscope every few hours. […] Untreated control eggs underwent the second cleavage 6 hours after fertilization and developed into morula in 24 hours; […].

[7] = tested on: mice (ddY, male); type: in vivo; conditions: i.c.v.
Experimental: Toxicity in mice was assessed by intracerebroventricularly injecting varying concentrations of SOR to mice (ddY, male, 3 to 4 weeks old, Japan SLC, Inc.) (Sakai et al., J Pharmacol Exp Ther. 2001; 296(2):650-8). […] […].

[8] = tested on: Plasmid DNA (pTAC-1); assay: Cleavage of DNA by natural SOR, agarose electrophoresis; type: biochemical; conditions: SOR 8.8 μg/mL, with or without EDTA 12.5 mM, room temperature, 24 hours
Experimental: Plasmid DNA (pTAC-1, 4 ng, BioDynamics Laboratory, Inc.), or the plasmid DNA and EDTA (12.5 mM) were added to and mixed with a hydrophobic interaction chromatography fraction containing SOR (8.8 μg/mL) or a Tris-HCl buffer (pH 8.3) containing 0.1 M NaCl. The mixture was left at room temperature for 24 hours, separated by agarose electrophoresis, stained with ethidium bromide (15 min), and subsequently observed under UV light (260 nm). Thermo scientific GeneRuler 1 kb DNA Ladder (Thermo Fisher Scientific Inc.) was used as a marker.

[9] = tested on: HeLa cells (derived from human uterine cervix cancer); assay: Intracellular translocation into HeLa cell, confocal laser microscope; type: cell-based; conditions: overall conclusion
Experimental: Whether SOR could translocate into cells and further into the nuclei was studied using fluorescently labeled SOR. […] Also, BSA labeled with FITC in the same manner as above was used as a control.
The same experiment as in the section (1) was also conducted for HeLa cells (derived from human uterine cervix cancer). A HeLa suspension prepared at approximately 2.2×10^4 cells/mL was added at 270 μL/well to 8-well chamber cover glass (Eppendorf) to make approximately 6.0×10^3 cells/well, followed by preculture at 37° C. for 24 hours in a 5% CO2 incubator. […] The cells thus supplemented with the sample was subjected to fixing and permeabilization treatment over each time period from 30 minutes to 16 hours, and stained with DAPI. Then, a mount was prepared.

[10] = Isoelectric point by two-dimensional polyacrylamide gel electrophoresis (2-DE); type: physicochemical; conditions: IPG Strip 3-6
Experimental: Next, the isoelectric point of SOR was determined by two-dimensional polyacrylamide gel electrophoresis (2-DE). First, 443 μg of a sample was mixed with a rehydration solution (8 M urea, 0.5% 3-[(3-cholamidopropyl)dimethylammonio]-prop anesulfonic acid (CHAPS), 0.5% Bio-Lyte 3/10 (Bio-Rad Laboratories, Inc.), 0.2% dithiothreitol, 0.002% bromophenol blue). The obtained solution was applied to IPG Strip 3-6 (Bio-Rad Laboratories, Inc.). Isoelectric focusing electrophoresis was performed at 20° C. as follows: rehydration for 12 hours, 300 V for 30 minutes, 1000 V for 30 minutes, and 5000 V for 2 hours. After electrophoresis, the strip was equilibrated for 15 minutes with shaking in 2% SDS, 50 mM Tris-HCl, pH 8.8, 6 M urea, 30% glycerol, and 0.25% DTT. Subsequently, the strip was re-equilibrated for 15 minutes with shaking in 2% SDS, 50 mM Tris-HCl, pH 8.8, 6 M urea, 30% glycerol, and 4.5% iodoacetamide. The strip was put on a 12% polyacrylamide gel, and the second electrophoresis was performed in the same manner as in SDS-PAGE. The gel was stained with a silver staining kit (Wako Pure Chemical Industries, Ltd.).

## C=C1[C@@H](C)[C@H]2[C@H](Cc3ccccc3)NC(=O)[C@]23[C@H](OC(C)=O)/C=C/[C@@](C)(O)C(=O)[C@@H](C)C/C=C/[C@H]3[C@@H]1O [Cytochalasin D]
[1]; Miranda et al. 1974
  IC50: 100 nM

## CO[C@H]1C[C@H](CC[C@H](C)[C@H](O)[C@H](C)[C@H]2OC(=O)/C=C/C(C)=C/C[C@H](O)C[C@@H]3C=CC[C@@H](C[C@H](OC)[C@@H](C)[C@@H](O)C[C@@H](O)[C@H](C)[C@@H]([C@@H](C)[C@@H](O)[C@@H](C)CC[C@H]4C[C@H](OC)C[C@H](C)O4)OC(=O)/C=C/C(C)=C/C[C@H](O)C[C@@H]4C=CC[C@@H](C[C@H](OC)[C@@H](C)[C@@H](O)C[C@@H](O)[C@@H]2C)O4)O3)O[C@@H](C)C1 [Swinholide A]
[2]
  IC50: 22 nM

## C=CC[C@H](C)[C@H](C)C[C@@H](O)[C@H](O)[C@@H]1CC[C@@]2(C)O[C@@]3(C)C[C@@]4(C)O[C@H]5/C=C\C[C@H]6O[C@H]7C[C@H]8O[C@H]9C[C@@]%10(C)O[C@@](C)([C@@H]%11CC[C@H]%12O[C@@]%13(C)C[C@H]%14O[C@@]%15(C)C[C@H]%16O[C@@]%17(C)C[C@@H](O)[C@H]([C@@H]%18O[C@H]%19[C@H](O)[C@@H](O)[C@H](C[C@H](O)C[C@@H](O)[C@@H]%20O[C@H]%21[C@H](O)[C@@H](O)[C@H]([C@@H]%22O[C@@H]%23[C@H](O)[C@H]%24O[C@H]%25C[C@H]%26O[C@@H](C[C@H](O)[C@@H](O)[C@H]%27O[C@H]%28[C@H](O)[C@H]%29O[C@H]%30C[C@H]%31O[C@H]%32[C@@H](O)[C@@H](O)[C@H]([C@H](C)[C@H](O)[C@H](C)CC[C@H](OS(=O)(=O)[O-])[C@H](O)[C@H](C)C[C@@H](O)C(=C)/C(C)=C/CO)O[C@@H]%32[C@H](O)C[C@]%31(C)O[C@@H]%30C[C@]%29(C)O[C@@H]%28C[C@H]%27O)[C@H](OS(=O)(=O)[O-])[C@H](O)[C@@H]%26O[C@@H]%25C[C@@H]%24O[C@H]%23[C@H](O)[C@H]%22O)O[C@H]%21C[C@H]%20O)O[C@H]%19C[C@H]%18O)O[C@@H]%17[C@H](O)[C@]%16(C)O[C@@H]%15CC[C@]%14(C)O[C@@H]%13C[C@@H]%12O%11)[C@H](O)C[C@@H]%10O[C@]9(C)CC[C@]8(C)O[C@]7(C)C[C@@H]6O[C@@H]5C[C@@H]4O[C@@H]3C[C@@H]2O1.[Na+].[Na+] [Maito toxin]
[3]
  IC50: ~0.058 nM
[4]
  Lethal dose: 37.9 pmol/kg

## CC(=O)O[C@H]1C(=O)[C@@]2(C)[C@H]([C@H](OC(=O)c3ccccc3)[C@]3(O)C[C@H](OC(=O)[C@H](O)[C@@H](NC(=O)c4ccccc4)c4ccccc4)C(C)=C1C3(C)C)[C@]1(OC(C)=O)CO[C@@H]1C[C@@H]2O [Paclitaxel]
[1]; Liebmann et al. 1993
  IC50: 2.6 nM

B1: soritesidine (protein)
chain: HFSLKRQDSSITHQTVSIFCITILLLSVSAYFPNSIPEAQAKLGDQRQIDIASWNTFDFGGKFGGVCKANDPTILQAMTDVISQHDVILVQEIANVTNPCNPANIFSGFNNLCSNNYLGGLGYLCQDTGIVGSGEGYGIIYKNNTGIGNVVIERTDNPNTVPYIPAGGGNNQMKRPPMKATLDFNAGAFNVVVYNAHTSPSGGVPKEIKLLSDRISPAHNPLDKNAVITLGDLNADGKRRLPNGQLDHGTDYYRGGFAAHPNDFPVSGWQQTVTDTDVTNFAQTLRAYDRMILSNATHNSYDEYGIIGGIPNPLPYPGGVYPAGTLFKNVHTGGGNTGKALSDHRLIWSKLNYGAIETTDNNGNTKSNFVEFTNPPQCTAPDTVYAKGADFVPNRTVDIYITKQPDNQNFIPLPQPQNPTNPGQFKQVGESYQLTDVRTTGKSTHNIDANGNIANTAVWVQPTPNQQYNLIVDVDRDGYFTNSIDIVDAFNTQGFDVDPCLRKRLAASLSDGIPAGDGTRDFVKPPKIFISGDWFPQGSARIYIIIYDKNFDYNGNDSKVLTDVRGTYDTITVGENHKFTGLEWSSPHVGNYNIIFDANSDGVYKKSDGDIVDHINEIGFAMLESYPHHSHIVDLDDNANQREDFNSGIAKNVYVLATNLPNPSTIVDVYVISEKLLKLNNPGWTTWQQSSNVPLKESAAPTNNGDRLHPTWVTPQKTVFGSVWHMPGDTFDPPYINYYGKKFTIVIDVNRDGKYDPSIDMVDTHDIGDMTDWFITQGHHDLSPTSGNGQPAVSEYKEYLNSKLDLENPLDNTNNYDAATEAASAQYLCRTNLPINLFENVIELGAQTGFIMFNPDEYYAGRDLNSGRHIYDAVDFDGLEINDGYTSVISAKEMTLNRLGVGQNSNLLTCGADTVTIDGMSTQKDSTTNIVAKTISHKSNISLEADTCTHYTHNLYFESDTNILVKAIESPFAWIIDVGDRILPGTGC
[5]
  selectivity for the HeLa cells over the L1210 cells: approximately 200 times
[6]; SOR 1.3 ng/mL
  influence on egg cleavage and development: overall shape of the cells was shrunken and bubble-like protrusions on the cell surface were often observed, though development progressed
[6]; SOR 1.3 μg/mL, 24 hours
  influence on egg cleavage and development: only two blastomeres were observed even 24 hours later
[6]; varying SOR concentrations
  influence on the morphology of the eggs: concentration-dependent influence on the morphology of the eggs
[7]
  Lethal dose: 1.60 pmol/kg
  acute toxicity: no acute toxicity was observed
  dosage causing lethal toxicity: 5.74 ng/mouse
[7]; 574 ng of SOR
  time to death: 18 h
  time to loss of normal posture: 17 h
  time to loss of voluntary movement: 14 h
[7]; 14 hours or later after administration
  eye observation after administration: Reddish ring around eyes was observed
[8]
  cleavage of DNA: cleaved DNA in a metal ion-dependent manner
[9]
  intracellular translocation: intracellular translocation of SOR was confirmed
[10]
  isoelectric point (pI): approximately 4.5
